Assay results taken from paper PMC4157346.

Key:
[1] = target: CXCR1 receptor on stably transfected RBL-2H3 cells (UniProt P25024)
[2] = target: CXCR1 receptor on stably transfected RBL-2H3 cells (UniProt P25024); test: radioligand binding
[3] = target: CXCR2 receptor on stably transfected RBL-2H3 cells (human) (UniProt P25025); test: radioligand binding

Row | EC50 of Ca2+ release, CXCR1-transfected RBL-2H3 cells [1] | Kd [2] | Kd [3] | Substance
1 | 22.9 nM |  |  | CXCL8 G31V mutant (ligand)
2 | 10.7 nM |  |  | CXCL8 P32A mutant (ligand)
3 | > 1000 nM |  |  | CXCL8 P32G mutant (ligand)
4 | 2.5 nM | 4.1 nM | 5.4 nM | CXCL8 wild type (from UniProt P10145 21-99) (ligand)
